Positions of bridges follow the written chain, without caps; N, C: chain ends. Non-standard residues stand in square brackets, D forms with d. *: point of attachment. DOTA = O=C(O)CN1CCN(CC(=O)O)CCN(CC(=O)*)CCN(CC(=O)O)CC1
Molecular target: T1, ACE2 on HEK-293 cells transfected with ACE2 (HEK-ACE2) (UniProt Q9BYF1 18-805)
T1 construct: ACE2 expressed in transfected HEK-293 cells; Expression verified earlier by western blotting (Beyer et al., 2023); also called ACE2-transfected HEK cells; source: HEK-293 cells transfected with ACE2, bought: Innoprot; on cells
Experiment: radioligand binding; saturation binding of the radiopeptide (1-2000 nM, 5 MBq/nmol) on HEK-ACE2 cells, 1 h at 4 °C on ice, DMEM without supplements; non-specific binding determined with 20 µM DX600; n = 3
Conditions: one partner purified

T1 sequence (Q9BYF1 18-805): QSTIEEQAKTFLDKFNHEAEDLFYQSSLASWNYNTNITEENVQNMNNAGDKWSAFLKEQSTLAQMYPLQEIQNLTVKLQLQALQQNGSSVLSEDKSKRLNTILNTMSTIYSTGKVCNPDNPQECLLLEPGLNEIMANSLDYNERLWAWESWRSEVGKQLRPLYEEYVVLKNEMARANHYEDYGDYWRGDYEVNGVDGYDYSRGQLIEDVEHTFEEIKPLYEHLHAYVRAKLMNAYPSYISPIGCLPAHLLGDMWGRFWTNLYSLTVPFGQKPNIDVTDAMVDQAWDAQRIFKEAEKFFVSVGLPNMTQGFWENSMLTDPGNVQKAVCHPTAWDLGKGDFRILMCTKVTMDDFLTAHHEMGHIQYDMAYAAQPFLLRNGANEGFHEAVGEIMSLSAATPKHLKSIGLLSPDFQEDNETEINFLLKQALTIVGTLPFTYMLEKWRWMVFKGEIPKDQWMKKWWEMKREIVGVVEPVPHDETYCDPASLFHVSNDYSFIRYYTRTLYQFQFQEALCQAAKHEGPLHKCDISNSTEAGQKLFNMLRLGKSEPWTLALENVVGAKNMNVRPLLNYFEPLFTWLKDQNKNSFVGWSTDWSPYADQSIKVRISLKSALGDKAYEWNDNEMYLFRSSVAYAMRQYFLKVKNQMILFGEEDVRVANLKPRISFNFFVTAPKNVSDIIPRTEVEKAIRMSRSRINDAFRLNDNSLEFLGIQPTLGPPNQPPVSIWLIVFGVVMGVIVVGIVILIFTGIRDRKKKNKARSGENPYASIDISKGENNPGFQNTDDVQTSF

B1: [67Ga]Ga-DOTA-WJL-63 (peptide)
peptide: Ac-[dY]STQISRGFTRDSRGCGSGSGSK(DOTA)-NH2
modifications: bridge N-16; not fully specified (bridges); also: DOTA loaded with 67Ga
notes: WJL-63 with DOTA on the side chain of the C-terminal lysine; printed in three-letter code; Same peptide as m1 with a DOTA chelator and 67Ga; made on Rink amide resin, so the C-terminus should be an amide as in m1; also called radiolabeled DOTA-WJL-63; WJL-63 radiopeptide; source: synthetic peptide, DOTA conjugated, radiolabeled with gallium-67, used without further purification
With B1 the Kd was 90 nM.
